We go through one protein from FireProtDB (doi:10.1021/bi002653y).

Values joined by “and” are separate entries in the source; they are usually repeats but may differ in a detail not shown here. Identical values can stand only once.

For this data set the following is noted: Desulfovibrio desulfuricans (strain ATCC 27774 / DSM 6949 / MB), pH 7, 20 °C, GdnHCl, sodium phosphate 5 mM, reversible: yes, whole UniProt chain shown.

B1: Desulfoferrodoxin wild type, P22076 (protein)
chain: MPKHLEVYKCTHCGNIVEVLHGGGAELVCCGEPMKHMVEGSTDGAMEKHVPVIEKVDGGYLIKVGSVPHPMEEKHWIEWIELLADGRSYTKFLKPGDAPEAFFAIDASKVTAREYCNLHGHWKAEN
In the case of B1, the “denaturant midpoint (higher = more stable)” value is, setting by setting: (CD, transition: 3) 4.9 M and 5.1 M; (Fluorescence) 2.3 M; (Fluorescence, transition: 3) 1.7 M and 2.2 M and 2.9 M. For the same protein, the unfolding free energy by setting is: (CD, transition: 3) 11.3 kcal/mol and 12 kcal/mol; (Fluorescence) 11.3 kcal/mol; (Fluorescence, transition: 3) 10.6 kcal/mol and 10.9 kcal/mol.
